Reference: patent publication US10098865B2, “Multi-arm polymeric prodrug conjugates of taxane-based compounds” (Nektar Therapeutics, priority 2010, dated 2018)

Assay: Maximum Tolerated Dose (MTD) study of d9-docetaxel conjugates in athymic mice
Type: in vivo, female athymic nu/nu mice
Settings: for MTD (maximum tolerated dose), estimated: athymic nu/nu mice, qwk×3, iv, dose refers to d9-docetaxel content; for Body Weight Nadir / Body Weight Nadir (day): day of nadir / Treatment-Related Deaths: female athymic nu/nu mice, qwk x 3
Experimental: MTD for 4-arm-PEG20K-CM-glycine-d9-docetaxel and 4-arm-PEG20K-BA-d9-docetaxel were determined in female athymic nu/nu mice using standard methods. For all test compounds, the dose refers to the d9-docetaxel content. d9-Docetaxel solutions were prepared in D5W containing 7.5% Tween 80:7.5% ethanol. PEG-d9-docetaxel conjugates were prepared in D5W. The administration volume for all test articles was 10 mL/kg. Mice were observed daily for clinical signs and body weights were recorded on days 1-5 and then biweekly until the end of study. Any individual animal with a single observation of greater than 30% body weight loss or three consecutive measurements of greater than 25% body weight loss was euthanized. For any group with two measurements of mean body weight loss of greater than 20%, dosing was stopped and recovery was allowed. Within a group with greater than 20% mean weight loss, individual animals greater than 30% body weight loss were euthanized. Compound dosing was terminated for any group in which mean weight loss exceeded 20% or >10% of animals died. Moribund animals were euthanized and all animals were euthanized at end of study.

[1] = 7.5 mg/kg (d9-docetaxel content) iv
[2] = 30 mg/kg (d9-docetaxel content) iv
[3] = N=5, 7.5 mg/kg (d9-docetaxel content) iv
[4] = N=5, 15 mg/kg (d9-docetaxel content) iv
[5] = N=5, 30 mg/kg (d9-docetaxel content) iv
[6] = 15 mg/kg (d9-docetaxel content) iv

Molecule: 4-ARM-PEG20K-Butanoate-Linked d9-Docetaxel Conjugate [4ARM-PEG20K-BA-d9-DOC]
- MTD (maximum tolerated dose), estimated: 20 mg/kg
- Body Weight Nadir [1]: −0.6%
- Body Weight Nadir (day): day of nadir [1]: 2 days
- Body Weight Nadir [2]: −21.0%
- Body Weight Nadir (day): day of nadir [2]: 21 days
- Treatment-Related Deaths [3]: 0
- Treatment-Related Deaths [4]: 0
- Treatment-Related Deaths [5]: 0

Molecule: 4-ARM-PEG20K-Glycinate-Linked d9-Docetaxel Conjugate [4ARM-PEG20K-CM-GLY-d9-DOC]
- MTD (maximum tolerated dose), estimated: 20 mg/kg
- Body Weight Nadir [1]: −1.6%
- Body Weight Nadir (day): day of nadir [1]: 2 days
- Body Weight Nadir [6]: −4.2%
- Body Weight Nadir (day): day of nadir [6]: 10 days
- Body Weight Nadir [2]: −25.2%
- Body Weight Nadir (day): day of nadir [2]: 21 days
- Treatment-Related Deaths [3]: 0
- Treatment-Related Deaths [4]: 0
- Treatment-Related Deaths [5]: 0

Molecule: [2H]C([2H])([2H])C(OC(=O)N[C@@H](c1ccccc1)[C@@H](O)C(=O)O[C@H]1C[C@@]2(O)[C@@H](OC(=O)c3ccccc3)C3C(C)(C(=O)[C@H](O)C(=C1C)C2(C)C)[C@@H](O)CC1OC[C@]13OC(C)=O)(C([2H])([2H])[2H])C([2H])([2H])[2H] (stereo partly drawn) [Docetaxel-d9, d9-Docetaxel]
- Body Weight Nadir (25 mg/kg iv): −17.7%
- Body Weight Nadir (day): day of nadir (25 mg/kg iv): 21 days
- Treatment-Related Deaths (N=5, 25 mg/kg iv): 0
